Reference: US20150093336A1 (VIB VZW, published 2015)

T1: Recombinant mouse MMR (R&D systems) (mouse, UniProt Q61830 20-1388)
T1 construct: Antigen of the PE-ELISA and the SPR; also called mMMR; recombinant mMMR
T1 sequence: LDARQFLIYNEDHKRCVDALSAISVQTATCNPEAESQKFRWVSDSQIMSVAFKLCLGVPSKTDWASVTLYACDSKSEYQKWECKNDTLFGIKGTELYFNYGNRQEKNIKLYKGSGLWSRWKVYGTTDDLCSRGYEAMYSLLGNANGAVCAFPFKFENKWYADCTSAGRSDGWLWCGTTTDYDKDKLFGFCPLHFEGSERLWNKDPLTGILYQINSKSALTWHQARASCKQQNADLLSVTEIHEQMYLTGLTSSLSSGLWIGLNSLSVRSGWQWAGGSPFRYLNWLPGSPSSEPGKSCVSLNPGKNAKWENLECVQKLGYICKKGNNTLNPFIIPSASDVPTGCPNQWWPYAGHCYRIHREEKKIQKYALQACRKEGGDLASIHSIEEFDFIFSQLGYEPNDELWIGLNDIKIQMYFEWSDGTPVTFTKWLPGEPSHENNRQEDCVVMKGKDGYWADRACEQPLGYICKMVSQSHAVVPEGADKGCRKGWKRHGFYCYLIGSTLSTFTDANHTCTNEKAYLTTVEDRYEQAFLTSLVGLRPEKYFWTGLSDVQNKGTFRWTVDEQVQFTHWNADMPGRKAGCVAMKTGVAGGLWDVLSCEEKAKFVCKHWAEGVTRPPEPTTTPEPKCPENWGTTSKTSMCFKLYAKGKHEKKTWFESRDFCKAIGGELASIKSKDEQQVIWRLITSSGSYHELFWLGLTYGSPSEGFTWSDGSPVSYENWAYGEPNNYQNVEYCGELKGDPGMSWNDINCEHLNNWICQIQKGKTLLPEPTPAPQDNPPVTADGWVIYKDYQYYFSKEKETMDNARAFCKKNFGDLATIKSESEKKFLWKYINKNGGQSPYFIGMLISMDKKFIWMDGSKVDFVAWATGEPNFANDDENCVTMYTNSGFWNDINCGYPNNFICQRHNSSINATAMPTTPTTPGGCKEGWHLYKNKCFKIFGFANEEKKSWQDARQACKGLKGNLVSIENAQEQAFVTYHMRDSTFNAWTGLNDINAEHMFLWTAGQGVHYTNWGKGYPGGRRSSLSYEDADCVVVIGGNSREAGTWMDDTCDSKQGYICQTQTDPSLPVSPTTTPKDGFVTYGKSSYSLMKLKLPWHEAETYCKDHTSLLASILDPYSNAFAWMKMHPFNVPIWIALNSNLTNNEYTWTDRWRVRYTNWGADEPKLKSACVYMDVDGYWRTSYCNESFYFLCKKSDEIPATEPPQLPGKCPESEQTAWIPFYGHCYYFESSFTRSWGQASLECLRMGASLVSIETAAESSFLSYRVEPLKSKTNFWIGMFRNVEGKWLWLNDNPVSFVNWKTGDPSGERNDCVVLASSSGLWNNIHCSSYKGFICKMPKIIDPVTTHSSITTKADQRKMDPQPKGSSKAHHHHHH

T2: Recombinant human MMR (R&D systems) (human, UniProt P22897 19-1383)
T2 construct: Antigen of the PE-ELISA and the SPR; also called hMMR; recombinant hMMR
T2 sequence: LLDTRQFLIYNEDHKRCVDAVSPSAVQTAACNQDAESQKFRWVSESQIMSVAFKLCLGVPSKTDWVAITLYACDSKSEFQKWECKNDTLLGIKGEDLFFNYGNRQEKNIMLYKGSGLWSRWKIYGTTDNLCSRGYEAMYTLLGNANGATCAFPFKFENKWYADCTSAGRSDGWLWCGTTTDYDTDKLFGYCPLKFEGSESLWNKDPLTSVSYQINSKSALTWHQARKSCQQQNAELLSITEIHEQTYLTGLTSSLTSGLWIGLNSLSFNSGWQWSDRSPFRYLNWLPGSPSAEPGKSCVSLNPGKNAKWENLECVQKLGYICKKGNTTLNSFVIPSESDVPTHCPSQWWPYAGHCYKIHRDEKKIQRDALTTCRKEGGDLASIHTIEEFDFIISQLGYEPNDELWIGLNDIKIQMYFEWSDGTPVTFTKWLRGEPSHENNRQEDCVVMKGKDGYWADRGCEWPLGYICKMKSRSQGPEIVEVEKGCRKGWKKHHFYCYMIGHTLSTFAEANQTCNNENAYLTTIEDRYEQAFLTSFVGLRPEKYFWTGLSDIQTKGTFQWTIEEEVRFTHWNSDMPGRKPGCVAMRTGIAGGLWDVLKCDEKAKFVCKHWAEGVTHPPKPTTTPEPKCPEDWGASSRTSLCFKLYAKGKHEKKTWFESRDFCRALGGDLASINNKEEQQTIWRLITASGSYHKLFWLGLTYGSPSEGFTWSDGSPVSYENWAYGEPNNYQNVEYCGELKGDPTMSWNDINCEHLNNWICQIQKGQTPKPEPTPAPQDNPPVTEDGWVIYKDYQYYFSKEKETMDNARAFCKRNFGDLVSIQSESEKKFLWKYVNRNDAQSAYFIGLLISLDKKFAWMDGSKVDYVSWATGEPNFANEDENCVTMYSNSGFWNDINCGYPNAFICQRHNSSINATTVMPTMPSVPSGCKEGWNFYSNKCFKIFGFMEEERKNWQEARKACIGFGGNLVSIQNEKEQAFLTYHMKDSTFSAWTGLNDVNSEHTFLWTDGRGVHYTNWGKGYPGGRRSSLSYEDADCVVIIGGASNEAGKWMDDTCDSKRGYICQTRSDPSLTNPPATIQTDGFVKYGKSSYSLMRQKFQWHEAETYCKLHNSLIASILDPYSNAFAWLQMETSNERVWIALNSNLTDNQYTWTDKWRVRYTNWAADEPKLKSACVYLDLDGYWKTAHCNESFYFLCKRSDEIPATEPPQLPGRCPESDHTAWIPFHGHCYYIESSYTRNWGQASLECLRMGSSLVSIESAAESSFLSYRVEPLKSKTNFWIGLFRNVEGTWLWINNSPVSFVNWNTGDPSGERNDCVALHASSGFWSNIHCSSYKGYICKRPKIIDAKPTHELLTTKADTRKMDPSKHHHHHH


Legend:
[1] = target: T1, Recombinant mouse MMR (R&D systems); assay: SPR, BIAcore T100; mouse MMR on CM5 chip, sdAb as analyte
Protocol: (§1) Affinity analysis was performed using a BIAcore™ T100 (GE Healthcare) with HEPES-buffered saline running buffer (10 mM HEPES with 0.15 M NaCl, 3.4 mM EDTA and 0.005% surfactant P20 at pH 7.4). MRR was immobilized on a CM5 chip in acetate buffer 50 mM (pH 5.0), resulting in 2100 RU MMR coated on the chip. A second channel on the same chip was activated/deactivated in a similar way and served as a negative control. The MMR sdAbs were used as analytes in eleven different concentrations, ranging from 1 to 2000 nM, at a flow rate of […]. Glycine-HCl 50 mM (pH 2.0) was used for elution. The kinetic and equilibrium parameters (kd, ka and KD) values were calculated from the combined sensogram of all concentrations using BIAcore™ T100 evaluation software 2.02 (GE Healthcare).
(§2) The binding characteristics and affinity of selected Nbs towards the recombinant hMMR and recombinant mMMR antigen was examined in further detail using surface plasmon resonance. A combined sensogram was recorded for each Nb (example for NbhmMMRm3.49 in FIG. 5) and the kinetic and equilibrium parameters (kd, ka and KD) values were calculated (Table 4 and Table 5). Most but not all results on binding to mouse or human rMMR obtained via this SPR analysis are in agreement with the results obtained by PE-ELISA.

[2] = target: T2, Recombinant human MMR (R&D systems); assay: SPR, BIAcore T100; human MMR on CM5 chip, sdAb as analyte
Protocol: as §1, §2

Row | Binder | Kd [2] | koff [2] | kon [2] | Kd [1] | koff [1] | kon [1] | binding result [1]
1 | NbhMMRm23.30 (VHH, Produced from pMECS with C-terminal HA and 6xHis tag) VHH: QVQLQESGGGLVQAGDSLSISCAASGDTFNHYSWGWFRQAPGKAREFVAAISWNGGSKYADSVKGRFAISRDIAKNTVSLQMNSLEPEDTAVYYCAADRRPYNDWWDDWSWWVYWGQGTQVTVSS | – | – | – | – | – | – | no binding (tested: analyte 1 to 2000 nM)
2 | NbhMMRm15.43 (VHH, Produced from pMECS with C-terminal HA and 6xHis tag) VHH: QVQLQESGGTLVQPGGSLRLSCAASGSTFSINNMGWYRQAPGKQRELVAGITGGNTHYADSVKGRFTISRDNAKNTMYLQMNGLKPEDTAVYYCNANWGAYWGQGTQVTVSS | 0.27 µM | 0.0059 s⁻¹ | 22000 M⁻¹ s⁻¹ | 0.044 µM | 0.0013 s⁻¹ | 29000 M⁻¹ s⁻¹ | –
3 | NbhmMMRm6.71 (VHH, Produced from pMECS with C-terminal HA and 6xHis tag) VHH: QVQLQESGGGLVQAGGSLRLSCAASGGTFDDSVIGWFRQAPGKEREGVSCISSNDGTTHYASPVKGRFTISSDNAKNTVYLQMNSLKPEDTAVYYCAAETPSIGSPCTSASYDYWGQGTQVTVSS | 0.0056 µM | 0.0011 s⁻¹ | 190000 M⁻¹ s⁻¹ | – | – | – | –
4 | NbhmMMRm26.70 (VHH, Produced from pMECS with C-terminal HA and 6xHis tag) VHH: QVQLQESGGGLVQPGGSLRLSCTASGFPFSSAPMSWVRQAPGKELEWVSYIGYTGTITDYANSVKGRFTISRDNAKNRLYLQMNSLKPEDTAVYFCAQGYARLIADSDLVRGQGTQVTVSS | 0.013 µM | 0.0073 s⁻¹ | 580000 M⁻¹ s⁻¹ | 0.0019 µM | 0.0013 s⁻¹ | 690000 M⁻¹ s⁻¹ | –
5 | NbhMMRm3.1 (VHH, Produced from pMECS with C-terminal HA and 6xHis tag; also called NbhmMMRm3.1) VHH: QVQLQESGGGLVQPGGSLRLSCAASGFTLDYYAIGWFRQAPGKEREGISCISYKGGSTTYADSVKGRFTISKDNAKNTAYLQMNNLKPEDTGIYYCAAGFVCYNYDYWGPGTQVTVSS | 0.0034 µM | 0.00074 s⁻¹ | 220000 M⁻¹ s⁻¹ | 0.019 µM | 0.004 s⁻¹ | 210000 M⁻¹ s⁻¹ | –
6 | NbhmMMRm24.31 (VHH, Produced from pMECS with C-terminal HA and 6xHis tag) VHH: QVQLQESGGGLVQPGGSLRLSCTATGFTLKNHHIGWLRQAPGKEREGVASINSSGGSTNYADSVQGRFTISRDNAKNTVFLQMNSLKSEDTAVYYCARLRRYYGLNLDPGSYDYWGQGTQVTVSS | 0.0027 µM | 0.00069 s⁻¹ | 260000 M⁻¹ s⁻¹ | 0.074 µM | 0.0021 s⁻¹ | 28000 M⁻¹ s⁻¹ | –

The remaining binders from weak to strong by Kd [2], led by results:

Row | Kd [2] | koff [2] | kon [2] | Kd [1] | koff [1] | kon [1] | Binder | binding result [1]
7 | 0.29 µM | 0.0061 s⁻¹ | 21000 M⁻¹ s⁻¹ | 0.044 µM | 0.0013 s⁻¹ | 29000 M⁻¹ s⁻¹ | NbhmMMRm15.49 (VHH, Produced from pMECS with C-terminal HA and 6xHis tag) VHH: QVQLQESGGGLVQAGGSLRLSCAASGSTFSINNMGWYRQAPGKQRELVAGITGGNTHYADSVKGRFTISRDNAKNTMYLQMNSLKPEDTAVYYCNANWGAYWGQGTQVTVSS | –
8 | 0.038 µM | 0.0019 s⁻¹ | 49000 M⁻¹ s⁻¹ | 0.13 µM | 0.004 s⁻¹ | 30000 M⁻¹ s⁻¹ | NbhmMMRm22.84 (VHH, Produced from pMECS with C-terminal HA and 6xHis tag) VHH: QVQLQESGGGLVQPGGSLRLSCAASGRTFSNYVNYAMGWFRQFPGKEREFVASISWSSVTTYYADSVKGRFTISRDNAKNTVYLQMNSLKPEDTAVYYCAAHLAQYSDYAYRDPHQFGAWGQGTQVTVSS | –
9 | 0.019 µM | 0.0012 s⁻¹ | 62000 M⁻¹ s⁻¹ | – | – | – | NbhmMMRm17.72 (VHH, Produced from pMECS with C-terminal HA and 6xHis tag) VHH: QVQLQESGGGLVQPGGSLRLSCAASGSIVSINAMGWYRQAPGKQRELVALVTGSGRTNLADSVKGRFTISRDNAKNTVYLQMNSLKPEDTAVYYCNVLVIGPLEGYDYWGQGTQVTVSS | –
10 | 0.0036 µM | 0.0012 s⁻¹ | 340000 M⁻¹ s⁻¹ | – | – | – | NbhmMMRm21.22 (VHH, Produced from pMECS with C-terminal HA and 6xHis tag; also called NbhMMRm21.22) VHH: QVQLQESGGGLVQAGGSLRLSCAASGRTFSSAAMGWFRQAPGKEREPVALINLDDGETYYADIAKGRFTLSKDNAKNSVYLQMNSLKPEDTAVYYCAVRGRFDDNYEYWGQGTQVTVSS | –
11 | 0.0033 µM | 0.00066 s⁻¹ | 200000 M⁻¹ s⁻¹ | 0.025 µM | 0.0033 s⁻¹ | 130000 M⁻¹ s⁻¹ | NbhMMRm5.38 (VHH, Produced from pMECS with C-terminal HA and 6xHis tag; also called NbhmMMRm5.38; Nb5.38) VHH: QVQLQESGGGLVQAGGSLRLSCAASGFTDDDYDIGWFRQAPGKEREGVSCISSSDGSTYYADSVKGRFTISSDNAKNTVYLQMNSLKPEDTAVYYCAADFFRWDSGSYYVRGCRHATYDYWGQGTQVTVSS | –
12 | 0.0018 µM | 0.0008 s⁻¹ | 440000 M⁻¹ s⁻¹ | 0.012 µM | 0.0036 s⁻¹ | 290000 M⁻¹ s⁻¹ | NbhmMMRm3.49 (VHH, Produced from pMECS with C-terminal HA and 6xHis tag; also called NbhMMRm3.49) VHH: QVQLQESGGGLVQPGGSLRLSCAASGFSLDYYAIGWFRQAPGKEREGISCISYKGGSTTYADSVKGRFTISKDNAKNTAYLQMNSLKPEDTGIYSCAAGFVCYNYDYWGQGTQVTVSS | –
